Measurements published in patent US20240254255A1.

Experiments:
[1] = biological target: human HER2 (ErbB2) expressed on the surface of cell lines and primary cells (human) (UniProt P04626); experiment: flow cytometry, ZR751 cells, [Ab] 10 ug/ml
[2] = biological target: human HER2 (ErbB2) expressed on the surface of cell lines and primary cells (human) (UniProt P04626); experiment: flow cytometry, ZR751 cells, [Ab] 1.25 ug/ml
[3] = biological target: human HER2 (ErbB2) expressed on the surface of cell lines and primary cells (human) (UniProt P04626); experiment: flow cytometry, JIMT1 cells, [Ab] 20 ug/ml
[4] = biological target: human HER2 (ErbB2) expressed on the surface of cell lines and primary cells (human) (UniProt P04626); experiment: flow cytometry, ZR751 cells, [Ab] 2.5 ug/ml
[5] = biological target: human HER2 (ErbB2) expressed on the surface of cell lines and primary cells (human) (UniProt P04626); experiment: flow cytometry, MDAMB361 cells, [Ab] 10 ug/ml
[6] = biological target: human HER2 (ErbB2) expressed on the surface of cell lines and primary cells (human) (UniProt P04626); experiment: flow cytometry, ZR751 cells, [Ab] 40 ug/ml
[7] = biological target: human HER2 (ErbB2) expressed on the surface of cell lines and primary cells (human) (UniProt P04626); experiment: flow cytometry, MDAMB361 cells, [Ab] 1.25 ug/ml
[8] = biological target: human HER2 (ErbB2) expressed on the surface of cell lines and primary cells (human) (UniProt P04626); experiment: flow cytometry, ZR751 cells, [Ab] 0.31 ug/ml
[9] = biological target: human HER2 (ErbB2) expressed on the surface of cell lines and primary cells (human) (UniProt P04626); experiment: flow cytometry, ZR751 cells, [Ab] 0.63 ug/ml
[10] = biological target: human HER2 (ErbB2) expressed on the surface of cell lines and primary cells (human) (UniProt P04626); experiment: flow cytometry, ZR751 cells, [Ab] 5 ug/ml
[11] = biological target: human HER2 (ErbB2) expressed on the surface of cell lines and primary cells (human) (UniProt P04626); experiment: flow cytometry, MDAMB361 cells, [Ab] 5 ug/ml
[12] = biological target: human HER2 (ErbB2) expressed on the surface of cell lines and primary cells (human) (UniProt P04626); experiment: flow cytometry, JIMT1 cells, [Ab] 10 ug/ml
[13] = biological target: human HER2 (ErbB2) expressed on the surface of cell lines and primary cells (human) (UniProt P04626); experiment: flow cytometry, ZR751 cells, [Ab] 20 ug/ml
[14] = biological target: human HER2 (ErbB2) expressed on the surface of cell lines and primary cells (human) (UniProt P04626); experiment: flow cytometry, JIMT1 cells, [Ab] 5 ug/ml
[15] = biological target: human HER2 (ErbB2) expressed on the surface of cell lines and primary cells (human) (UniProt P04626); experiment: flow cytometry, JIMT1 cells, [Ab] 1.25 ug/ml
[16] = biological target: human HER2 (ErbB2) expressed on the surface of cell lines and primary cells (human) (UniProt P04626); experiment: flow cytometry, MDAMB361 cells, [Ab] 20 ug/ml
[17] = biological target: human HER2 (ErbB2) expressed on the surface of cell lines and primary cells (human) (UniProt P04626); experiment: flow cytometry, MDAMB361 cells, [Ab] 40 ug/ml

MFI A.U. [1]: 1080 A.U.
MFI A.U. [2]: 312 A.U.
MFI A.U. [3]: 516 A.U.
MFI A.U. [4]: 484 A.U.
MFI A.U. [5]: 605 A.U.
MFI A.U. [6]: 3320 A.U.
MFI A.U. [7]: 202 A.U.
MFI A.U. [8]: 199 A.U.
MFI A.U. [9]: 271 A.U.
MFI A.U. [10]: 696 A.U.
MFI A.U. [11]: 253 A.U.
MFI A.U. [12]: 240 A.U.
MFI A.U. [13]: 2540 A.U.
MFI A.U. [14]: 190 A.U.
MFI A.U. [15]: 183 A.U.
MFI A.U. [16]: 617 A.U.
MFI A.U. [17]: 558 A.U.
Substance: IC1 (isotype control antibody)
